Measured values: publication PMC7355005 (Proceedings of the National Academy of Sciences of the …, 2020)
Where “and” joins values, the source holds several entries; their conditions need not be identical. Equal values may be shown once.

Legend:
Human hemoglobin (Hb) = Human hemoglobin (Hb) (human, UniProt P69905;P68871); experiment: mass photometry
mass photometry = target: the molecule itself; experiment: mass photometry
native MS = target: the molecule itself; experiment: native MS

Chain of Human hemoglobin (Hb) (P69905 whole entry, chain 1 of 2): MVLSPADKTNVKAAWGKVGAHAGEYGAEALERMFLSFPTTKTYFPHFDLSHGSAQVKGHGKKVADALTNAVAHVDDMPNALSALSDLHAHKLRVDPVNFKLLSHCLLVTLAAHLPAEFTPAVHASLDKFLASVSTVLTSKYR
Chain of Human hemoglobin (Hb) (P68871 whole entry, chain 2 of 2): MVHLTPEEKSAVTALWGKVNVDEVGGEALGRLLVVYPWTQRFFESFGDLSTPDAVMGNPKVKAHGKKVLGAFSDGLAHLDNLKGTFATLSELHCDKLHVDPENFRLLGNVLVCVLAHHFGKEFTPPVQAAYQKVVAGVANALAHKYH

| stoichiometry N (Human hemoglobin (Hb)) | Binder | stoichiometry N (mass photometry) | stoichiometry N (native MS) |
| --- | --- | --- | --- |
| 2 Hb(αβ) dimers per Hp 1-1 dimer | Haptoglobin 1-1 (Hp 1-1), dimer of two α1β units (complex, N-glycans at Asn184, Asn207, Asn211 and Asn241) chain 1: VDSGNDVTDIADDGCPKPPEIAHGYVEHSVRYQCKNYYKLRTEGDGVYTLNNEKQWINKAVGDKLPECEAVCGKPKNPANPVQ chain 2: ILGGHLDAKGSFPWQAKMVSHHNLTTGATLINEQWLLTTAKNLFLNHSENATAKDIAPTLTLYVGKKQLVEIEKVVLHPNYSQVDIGLIKLKQKVSVNERVMPICLPSKDYAEVGRVGYVSGWGRNANFKFTDHLKYVMLPVADQDQCIRHYEGSTVPEKKTPKSPVGVQPILNEHTFCAGMSKYQEDTCYGDAGSAFAVHDLEEDTWYATGILSFDKSCAVAEYGVYVKVTSIQDWVQKTIAEN | 2 Hp (αβ) units | – |
| 1 Hb(αβ) dimer per Hp (αβ) monomer | Haptoglobin 2-2 (Hp 2-2), cyclic (α2)n(β)n oligomers (complex, N-glycans at Asn184, Asn207, Asn211 and Asn241) chain 1: VDSGNDVTDIADDGCPKPPEIAHGYVEHSVRYQCKNYYKLRTEGDGVYTLNDKKQWINKAVGDKLPECEADDGCPKPPEIAHGYVEHSVRYQCKNYYKLRTEGDGVYTLNNEKQWINKAVGDKLPECEAVCGKPKNPANPVQ chain 2: ILGGHLDAKGSFPWQAKMVSHHNLTTGATLINEQWLLTTAKNLFLNHSENATAKDIAPTLTLYVGKKQLVEIEKVVLHPNYSQVDIGLIKLKQKVSVNERVMPICLPSKDYAEVGRVGYVSGWGRNANFKFTDHLKYVMLPVADQDQCIRHYEGSTVPEKKTPKSPVGVQPILNEHTFCAGMSKYQEDTCYGDAGSAFAVHDLEEDTWYATGILSFDKSCAVAEYGVYVKVTSIQDWVQKTIAEN | – | < 7 Hp (αβ) units |
| – | Haptoglobin 2-1 (Hp 2-1) oligomers from the serum of a single heterozygote donor (complex, N-glycans at Asn184, Asn207, Asn211 and Asn241) chain 1: VDSGNDVTDIADDGCPKPPEIAHGYVEHSVRYQCKNYYKLRTEGDGVYTLNNEKQWINKAVGDKLPECEAVCGKPKNPANPVQ chain 2: VDSGNDVTDIADDGCPKPPEIAHGYVEHSVRYQCKNYYKLRTEGDGVYTLNDKKQWINKAVGDKLPECEADDGCPKPPEIAHGYVEHSVRYQCKNYYKLRTEGDGVYTLNNEKQWINKAVGDKLPECEAVCGKPKNPANPVQ chain 3: ILGGHLDAKGSFPWQAKMVSHHNLTTGATLINEQWLLTTAKNLFLNHSENATAKDIAPTLTLYVGKKQLVEIEKVVLHPNYSQVDIGLIKLKQKVSVNERVMPICLPSKDYAEVGRVGYVSGWGRNANFKFTDHLKYVMLPVADQDQCIRHYEGSTVPEKKTPKSPVGVQPILNEHTFCAGMSKYQEDTCYGDAGSAFAVHDLEEDTWYATGILSFDKSCAVAEYGVYVKVTSIQDWVQKTIAEN | – | 3 Hp (αβ) units and 4 Hp (αβ) units and 5 Hp (αβ) units |
